In publication PMC4915676, “Dissociation Dynamics of XPC-RAD23B from Damaged DNA Is a Determining Factor of NER Efficiency”:

T1: UvrA (UniProt P0A698 1-940)
T1 sequence: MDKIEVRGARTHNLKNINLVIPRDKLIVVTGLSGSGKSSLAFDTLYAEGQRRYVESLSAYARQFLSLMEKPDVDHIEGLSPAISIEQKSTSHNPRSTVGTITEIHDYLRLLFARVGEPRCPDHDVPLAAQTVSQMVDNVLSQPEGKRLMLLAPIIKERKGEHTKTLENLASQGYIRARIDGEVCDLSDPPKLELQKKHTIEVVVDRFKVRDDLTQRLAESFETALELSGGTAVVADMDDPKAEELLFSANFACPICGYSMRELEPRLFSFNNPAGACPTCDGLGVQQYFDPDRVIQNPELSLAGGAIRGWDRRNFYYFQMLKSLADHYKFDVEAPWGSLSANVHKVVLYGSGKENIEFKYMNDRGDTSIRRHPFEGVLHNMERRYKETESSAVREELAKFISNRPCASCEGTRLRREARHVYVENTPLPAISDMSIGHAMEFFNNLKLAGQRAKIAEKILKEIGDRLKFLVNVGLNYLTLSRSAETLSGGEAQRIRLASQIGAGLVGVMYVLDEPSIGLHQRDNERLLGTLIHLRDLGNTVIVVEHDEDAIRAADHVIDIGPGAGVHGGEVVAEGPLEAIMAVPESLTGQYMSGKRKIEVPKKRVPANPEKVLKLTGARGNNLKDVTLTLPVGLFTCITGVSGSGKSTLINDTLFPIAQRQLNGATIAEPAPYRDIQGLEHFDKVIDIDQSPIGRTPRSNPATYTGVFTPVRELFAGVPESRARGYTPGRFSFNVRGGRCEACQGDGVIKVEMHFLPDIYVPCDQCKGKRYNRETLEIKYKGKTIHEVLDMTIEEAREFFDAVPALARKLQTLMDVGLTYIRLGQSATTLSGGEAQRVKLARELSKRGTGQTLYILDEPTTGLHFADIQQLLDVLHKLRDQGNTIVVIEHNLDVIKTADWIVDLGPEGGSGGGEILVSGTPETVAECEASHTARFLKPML


Experiments:
XPC-RAD23B [1] = biological target: T2, XPC-RAD23B (Homo sapiens, UniProt Q01831;P54727 1-940;1-409); test: SPR; 5 mM Mg2+; SPR: HBS-P+ (10 mM HEPES, 150 mM NaCl, 0.05% P20), 5 mM MgCl2, 1 mM DTT, 100 ug/mL BSA (+0.5 mM ATP for UvrA), pH and temperature not stated; EMSA: 20 mM Hepes-KOH pH 7.9, 75 mM KCl, 5 mM MgCl2, 1 mM DTT, 5% glycerol, 100 ug/mL BSA, 30 C; details: protein: recombinant; copies: 1;1; label: 5'-biotin on strand 1; blunt
UvrA = biological target: T1, UvrA; test: SPR; 0.5 mM ATP, 5 mM Mg2+; SPR: HBS-P+ (10 mM HEPES, 150 mM NaCl, 0.05% P20), 5 mM MgCl2, 1 mM DTT, 100 ug/mL BSA (+0.5 mM ATP for UvrA), pH and temperature not stated; EMSA: 20 mM Hepes-KOH pH 7.9, 75 mM KCl, 5 mM MgCl2, 1 mM DTT, 5% glycerol, 100 ug/mL BSA, 30 C; details: protein: recombinant; chain copies: 2; label: 5'-biotin on strand 1; blunt
XPC-RAD23B [2] = biological target: T2, XPC-RAD23B; test: SPR; 5 mM Mg2+; error as printed is 0.01e-9; SPR: HBS-P+ (10 mM HEPES, 150 mM NaCl, 0.05% P20), 5 mM MgCl2, 1 mM DTT, 100 ug/mL BSA (+0.5 mM ATP for UvrA), pH and temperature not stated; EMSA: 20 mM Hepes-KOH pH 7.9, 75 mM KCl, 5 mM MgCl2, 1 mM DTT, 5% glycerol, 100 ug/mL BSA, 30 C; details: protein: recombinant; copies: 1;1; label: 5'-biotin on strand 1; blunt

T2 sequence (Q01831 whole entry, chain 1 of 2): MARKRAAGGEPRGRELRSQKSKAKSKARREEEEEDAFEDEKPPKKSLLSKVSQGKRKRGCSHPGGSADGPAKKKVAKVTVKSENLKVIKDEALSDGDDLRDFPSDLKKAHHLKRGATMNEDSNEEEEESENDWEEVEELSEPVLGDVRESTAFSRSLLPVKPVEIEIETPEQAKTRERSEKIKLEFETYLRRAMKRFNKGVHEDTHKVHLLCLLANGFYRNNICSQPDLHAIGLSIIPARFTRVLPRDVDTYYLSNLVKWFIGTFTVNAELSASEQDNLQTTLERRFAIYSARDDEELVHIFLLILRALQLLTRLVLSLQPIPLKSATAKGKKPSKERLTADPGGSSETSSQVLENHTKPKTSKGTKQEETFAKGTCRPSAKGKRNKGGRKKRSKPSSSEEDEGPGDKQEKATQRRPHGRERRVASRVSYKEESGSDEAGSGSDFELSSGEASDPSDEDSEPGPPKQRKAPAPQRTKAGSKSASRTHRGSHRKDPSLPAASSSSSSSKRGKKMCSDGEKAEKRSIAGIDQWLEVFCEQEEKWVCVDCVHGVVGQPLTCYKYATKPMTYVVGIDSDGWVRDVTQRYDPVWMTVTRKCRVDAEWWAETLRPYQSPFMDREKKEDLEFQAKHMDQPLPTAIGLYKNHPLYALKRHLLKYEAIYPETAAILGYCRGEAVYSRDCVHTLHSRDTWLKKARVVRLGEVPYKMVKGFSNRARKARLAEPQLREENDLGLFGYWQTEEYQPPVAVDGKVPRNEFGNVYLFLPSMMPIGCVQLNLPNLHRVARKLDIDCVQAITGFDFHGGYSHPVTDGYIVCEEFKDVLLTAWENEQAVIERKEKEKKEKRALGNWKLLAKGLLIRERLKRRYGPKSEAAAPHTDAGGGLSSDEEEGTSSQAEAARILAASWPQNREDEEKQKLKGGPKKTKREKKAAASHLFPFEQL
T2 sequence (P54727 whole entry, chain 2 of 2): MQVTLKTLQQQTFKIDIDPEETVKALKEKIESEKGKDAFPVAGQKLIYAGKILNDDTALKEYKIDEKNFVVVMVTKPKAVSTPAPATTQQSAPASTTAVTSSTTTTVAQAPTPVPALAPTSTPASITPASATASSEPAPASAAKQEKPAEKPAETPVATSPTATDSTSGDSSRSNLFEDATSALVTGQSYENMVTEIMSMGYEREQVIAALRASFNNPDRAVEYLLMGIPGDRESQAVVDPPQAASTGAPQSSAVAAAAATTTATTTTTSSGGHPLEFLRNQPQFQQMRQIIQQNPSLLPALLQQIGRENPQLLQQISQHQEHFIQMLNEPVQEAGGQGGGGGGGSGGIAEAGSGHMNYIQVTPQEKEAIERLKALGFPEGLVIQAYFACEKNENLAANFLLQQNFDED

| Binder | Kd (XPC-RAD23B [1]) | Kd (UvrA) | Kd (XPC-RAD23B [2]) |
| --- | --- | --- | --- |
| NarI-G1 mono-FAAF 55-mer (dsDNA, dG-FAAF at G31 (G1) of strand 1) DNA 1: CCACTCCTATCCACCATCCATCTTACTCTCGGCGCCATCACCACTCACCACCACA DNA 2: TGTGGTGGTGAGTGGTGATGGCGCCGAGAGTAAGATGGATGGTGGATAGGAGTGG | 1.8 nM | 1.3 nM | – |
| NarI-G3 mono-FAAF 55-mer (dsDNA, dG-FAAF at G34 (G3) of strand 1) DNA 1: CCACTCCTATCCACCATCCATCTTACTCTCGGCGCCATCACCACTCACCACCACA DNA 2: TGTGGTGGTGAGTGGTGATGGCGCCGAGAGTAAGATGGATGGTGGATAGGAGTGG | – | 3.9 nM | 1.1 nM |
| NarI-G1G3 di-FAAF 55-mer (dsDNA, dG-FAAF at G31 and G34 (G1, G3) of strand 1) DNA 1: CCACTCCTATCCACCATCCATCTTACTCTCGGCGCCATCACCACTCACCACCACA DNA 2: TGTGGTGGTGAGTGGTGATGGCGCCGAGAGTAAGATGGATGGTGGATAGGAGTGG | 0.016 nM | 0.27 nM | – |
| NarI-G2 mono-FAAF 55-mer (dsDNA, dG-FAAF at G32 (G2) of strand 1) DNA 1: CCACTCCTATCCACCATCCATCTTACTCTCGGCGCCATCACCACTCACCACCACA DNA 2: TGTGGTGGTGAGTGGTGATGGCGCCGAGAGTAAGATGGATGGTGGATAGGAGTGG | 0.9 nM | 2.4 nM | – |
| NarI-G2G3 di-FAAF 55-mer (dsDNA, dG-FAAF at G32 and G34 (G2, G3) of strand 1) DNA 1: CCACTCCTATCCACCATCCATCTTACTCTCGGCGCCATCACCACTCACCACCACA DNA 2: TGTGGTGGTGAGTGGTGATGGCGCCGAGAGTAAGATGGATGGTGGATAGGAGTGG | 0.0042 nM | 0.5 nM | – |
| NarI-G1G2 di-FAAF 55-mer (dsDNA, dG-FAAF at G31 and G32 (G1, G2) of strand 1) DNA 1: CCACTCCTATCCACCATCCATCTTACTCTCGGCGCCATCACCACTCACCACCACA DNA 2: TGTGGTGGTGAGTGGTGATGGCGCCGAGAGTAAGATGGATGGTGGATAGGAGTGG | 0.076 nM | 0.49 nM | – |
